This note sets out measurements from article PMC10091538, “The H2TH-like motif of the Escherichia coli multifunctional protein KsgA is required for DNA binding involved in DNA repair and the suppression of mutation frequencies”.

Holding throughout (test): EMSA; 100 pmol protein, 10 fmol DNA, 500 ng calf thymus DNA; EMSA, 10 ul, 4 C, 60 min: 25 mM Tris-HCl pH 8.0, 500 uM DTT, 500 uM EDTA, 10% glycerol, 25 mM NaCl, 25 mM KCl, 10 uM ZnCl2, 125 uM each dNTP, 4 mM spermidine, 500 ng calf thymus DNA, 10 fmol 32P-dsDNA, 100 pmol protein; 12% PAGE
Conditions in all cases: protein: recombinant; tags: His (pET21a(+), BamHI/XhoI); label: 5'-32P
A general note: Mobility shift assays separate free from complexed probe on a gel.

One data set addresses T1, His-KsgA (9-273) (Escherichia coli, UniProt P06992 9-273, del1-8).
T1 sequence: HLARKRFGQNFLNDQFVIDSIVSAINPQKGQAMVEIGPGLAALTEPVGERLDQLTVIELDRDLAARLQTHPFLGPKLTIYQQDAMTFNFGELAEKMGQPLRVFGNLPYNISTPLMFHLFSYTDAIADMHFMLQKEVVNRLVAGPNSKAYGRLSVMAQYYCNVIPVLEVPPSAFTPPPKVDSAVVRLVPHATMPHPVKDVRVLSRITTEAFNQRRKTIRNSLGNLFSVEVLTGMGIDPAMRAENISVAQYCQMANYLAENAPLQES

Another data set concerns the target T2, His-KsgA (1-273) (Escherichia coli, UniProt P06992 1-273).
T2 sequence: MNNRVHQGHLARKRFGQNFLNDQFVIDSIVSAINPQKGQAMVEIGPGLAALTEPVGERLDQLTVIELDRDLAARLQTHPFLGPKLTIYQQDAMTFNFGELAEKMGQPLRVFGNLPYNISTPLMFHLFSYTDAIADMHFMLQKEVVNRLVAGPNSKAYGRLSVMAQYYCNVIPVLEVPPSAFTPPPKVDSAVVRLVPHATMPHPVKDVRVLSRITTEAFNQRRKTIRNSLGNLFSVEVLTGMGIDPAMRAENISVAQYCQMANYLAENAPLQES

The target in the next data set is T3, His-KsgA (1-213) (Escherichia coli, UniProt P06992 1-213, del214-273).
T3 sequence: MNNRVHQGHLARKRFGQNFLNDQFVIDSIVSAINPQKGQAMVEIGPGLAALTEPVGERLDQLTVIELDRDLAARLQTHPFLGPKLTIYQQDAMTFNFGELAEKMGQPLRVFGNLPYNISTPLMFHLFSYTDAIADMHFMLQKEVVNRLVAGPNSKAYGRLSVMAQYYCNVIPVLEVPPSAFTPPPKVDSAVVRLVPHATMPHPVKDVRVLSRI

B1: 5-foU/C duplex (dsDNA)
DNA 1: GGTACCTTCAGTCGACC
DNA 2: GGTCGACTUAAGGTACC
modifications: 5-formyluracil (5-foU) opposite C
Take B1: the binding result in the data set with His-KsgA (9-273) and in the data set with His-KsgA (1-273) was “binds” in each case.

B2: Tg/C duplex (dsDNA)
DNA 1: GCTGCCCGGGGGTTCCTCTTGTTC
DNA 2: GAACAAGAGTAACCCCCGGGCAGC
modifications: thymine glycol (Tg) opposite C
In the case of B2, the binding result is listed as “binds” with His-KsgA (9-273), “binds” with His-KsgA (1-273) and “no binding” with His-KsgA (1-213).

B3: 5-ohC/G duplex (dsDNA)
DNA 1: GAACTAGTGCATCCCCCGGGCTGC
DNA 2: GCAGCCCGGGGGATGCACTAGTTC
modifications: 5-hydroxycytosine (5-ohC) opposite G
On to B3, for which the binding result with His-KsgA (9-273) is on record as “binds”; with His-KsgA (1-273), “binds”; with His-KsgA (1-213) it was “no binding”.

B4: 5-ohC/A duplex (dsDNA)
DNA 1: GAACTAGTGCATCCCCCGGGCTGC
DNA 2: GCAGCCCGGGGGATACACTAGTTC
modifications: 5-hydroxycytosine (5-ohC) opposite A
On to B4, for which the binding result with His-KsgA (9-273) is on record as “binds”; with His-KsgA (1-273), “binds”; with His-KsgA (1-213), “no binding”.

B5: 5-ohC/C duplex (dsDNA)
DNA 1: GAACTAGTGCATCCCCCGGGCTGC
DNA 2: GCAGCCCGGGGGATCCACTAGTTC
modifications: 5-hydroxycytosine (5-ohC) opposite C
With B5, the binding result is reported as “binds” with His-KsgA (9-273), “binds” with His-KsgA (1-273) and “no binding” with His-KsgA (1-213).

B6: 5-ohC/T duplex (dsDNA)
DNA 1: GAACTAGTGCATCCCCCGGGCTGC
DNA 2: GCAGCCCGGGGGATTCACTAGTTC
modifications: 5-hydroxycytosine (5-ohC) opposite T
For B6, the binding result with His-KsgA (9-273) was “binds”; in the data set with His-KsgA (1-273), “binds”; in the data set with His-KsgA (1-213) it was “no binding”.
